Results: patent publication US20100297664A1 (NATIONAL INSTITUTE OF ADVANCE INDUSTRIAL SCIENCE AND …, published 2010)

How the values were obtained:
Test in all cases: peptide microarray (RepliTope)
SEQ ID NO 77 = molecular target: T1, SEQ ID NO 77 (human)
T1 construct: 15-mer of the human mortalin 348-450 array
T1 peptide: KAMQDAEVSKSDIGE
Method: (§1) Eighty nine (89) peptides (15 amino acids each) which were designed to each be shifted by one amino acid on the amino acid sequence ranging from position 348 to position 450 of human mortalin containing the amino acid sequence (SEQ ID NO: 56) ranging from the above position 381 to position 410, were chemically synthesized. Epitope mapping (RepliTope mapping) analysis was then carried out on them using a Tecon HS400 microarray analysis station (FIG. 14).
(§2) Background measurement was carried out for each microarray using an Axon Genepix scanner, so that it was confirmed that no signals were detected. All microarrays were treated using a blocking buffer (Pierce, Puperblock TBS #37536).
(§3) As anti-mortalin monoclonal antibodies having the cellular internalizing function, two antibodies 37-6 and 38-4 were prepared. Antibody 53-3 that is an anti-mortalin antibody not having the cellular internalizing function was prepared for comparison. Each antibody (30 μg/mL, 200 μL) diluted with a blocking buffer was applied to microarrays and then incubated. After the microarrays were washed 3 instances with a TBS buffer containing 0.1% T20, a fluorescence-labeled secondary antibody (1 μg/mL, anti-mouse-Dylight 649; Pierce #35515) was applied thereto and then incubated. Similarly, a control array subjected to incubation with only the secondary antibody was also treated so as to confirm no detected signals.

SEQ ID NO 68 = molecular target: T2, SEQ ID NO 68 (human)
T2 construct: 15-mer of the human mortalin 348-450 array; by its order peptide #47 (inferred)
T2 peptide: KVQQTVQDLFGRAPS
Method: as §1, §2, §3

SEQ ID NO 80 = molecular target: T3, SEQ ID NO 80 (human)
T3 construct: 15-mer of the human mortalin 348-450 array
T3 peptide: GMTRMPKVQQTVQDL
Method: as §1, §2, §3

SEQ ID NO 73 = molecular target: T4, SEQ ID NO 73 (human)
T4 construct: 15-mer of the human mortalin 348-450 array; by its order peptide #52 (inferred)
T4 peptide: VQDLFGRAPSKAVNP
Method: as §1, §2, §3

SEQ ID NO 67 = molecular target: T5, SEQ ID NO 67 (human)
T5 construct: 15-mer of the human mortalin 348-450 array
T5 peptide: PKVQQTVQDLFGRAP
Method: as §1, §2, §3

SEQ ID NO 81 = molecular target: T6, SEQ ID NO 81 (human)
T6 construct: 15-mer of the human mortalin 348-450 array
T6 peptide: TRMPKVQQTVQDLFG
Method: as §1, §2, §3

SEQ ID NO 82 = molecular target: T7, SEQ ID NO 82 (human)
T7 construct: 15-mer of the human mortalin 348-450 array
T7 peptide: RMPKVQQTVQDLFGR
Method: as §1, §2, §3

SEQ ID NO 79 = molecular target: T8, SEQ ID NO 79 (human)
T8 construct: 15-mer of the human mortalin 348-450 array
T8 peptide: EVILVGGMTRMPKVQ
Method: as §1, §2, §3

SEQ ID NO 78 = molecular target: T9, SEQ ID NO 78 (human)
T9 construct: 15-mer of the human mortalin 348-450 array
T9 peptide: GEVILVGGMTRMPKV
Method: as §1, §2, §3

SEQ ID NO 76 = molecular target: T10, SEQ ID NO 76 (human)
T10 construct: 15-mer of the human mortalin 348-450 array; by its order peptide #55 (inferred)
T10 peptide: LFGRAPSKAVNPDEA
Method: as §1, §2, §3

SEQ ID NO 75 = molecular target: T11, SEQ ID NO 75 (human)
T11 construct: 15-mer of the human mortalin 348-450 array; by its order peptide #54 (inferred)
T11 peptide: DLFGRAPSKAVNPDE
Method: as §1, §2, §3

SEQ ID NO 70 = molecular target: T12, SEQ ID NO 70 (human)
T12 construct: 15-mer of the human mortalin 348-450 array; by its order peptide #49 (inferred)
T12 peptide: QQTVQDLFGRAPSKA
Method: as §1, §2, §3

SEQ ID NO 74 = molecular target: T13, SEQ ID NO 74 (human)
T13 construct: 15-mer of the human mortalin 348-450 array; by its order peptide #53 (inferred)
T13 peptide: QDLFGRAPSKAVNPD
Method: as §1, §2, §3

SEQ ID NO 72 = molecular target: T14, SEQ ID NO 72 (human)
T14 construct: 15-mer of the human mortalin 348-450 array; by its order peptide #51 (inferred)
T14 peptide: TVQDLFGRAPSKAVN
Method: as §1, §2, §3

SEQ ID NO 71 = molecular target: T15, SEQ ID NO 71 (human)
T15 construct: 15-mer of the human mortalin 348-450 array; by its order peptide #50 (inferred)
T15 peptide: QTVQDLFGRAPSKAV
Method: as §1, §2, §3

SEQ ID NO 69 = molecular target: T16, SEQ ID NO 69 (human)
T16 construct: 15-mer of the human mortalin 348-450 array; by its order peptide #48 (inferred)
T16 peptide: VQQTVQDLFGRAPSK
Method: as §1, §2, §3

Measured: binding result

B1: anti-mortalin monoclonal antibody 52-3 (antibody, V domains shown)
VH: QVQLQQPGAELVKPGASVKLSCKASGYTFTSYWMHWVKQRPGQGLEWIGEINPSNGRTNYNEKFKSKATLTVDKSSSTAYMQLSSLTSEDSAVYYCARSRYYGSCYFDYWGQGTTLTVSS
VL: KIVMTQAAFSNPVTLGTSASISCRSSKSLLYSNGITYLYWYLQKPGQSPQLLIYQMSNLASGVPDRFSSSGSGTDFTLRISRVEAEDVGVYYCAQNLELPWTFGGGTKLEIK
notes: also called 52-3 antibody; non-internalization antibody
no binding (tested: 30 µg/mL): SEQ ID NO 77 | SEQ ID NO 68 | SEQ ID NO 80 | SEQ ID NO 73 | SEQ ID NO 67 | SEQ ID NO 81 | SEQ ID NO 82 | SEQ ID NO 79 | SEQ ID NO 78 | SEQ ID NO 76 | SEQ ID NO 75 | SEQ ID NO 70 | SEQ ID NO 74 | SEQ ID NO 72 | SEQ ID NO 71 | SEQ ID NO 69
